Source: the Human Domainome abundance scans (Beltran et al. 2025)
± gives the uncertainty stated by the source.

B1: Connector enhancer of kinase suppressor of ras 2, residues 9 to 71; numbered along this chain, Q8WXI2 (parent)
chain: SKWSPSQVVDWMKGLDDCLQQYIKNFEREKISGDQLLRITHQELEDLGVSRIGHQELILEAVD
B2: SWI/SNF-related matrix-associated actin-dependent regulator of chromatin subfamily B member 1, residues 181 to 248; numbered along this chain, Q12824 (parent)
chain: SQPEVLVPIRLDMEIDGQKLRDAFTWNMNEKLMTPEMFSEILCDDLDLNPLTFVPAIASAIRQQIESY

Variants of: B1
Assay: abundance fitness (aPCA) (normalised: wild type 0, dead -1); higher = more abundant; growth selection in yeast, the domain comes from the species named
Settings: Homo sapiens

Abundance fitness, by site and new letter:
V8: K -0.88 ± 0.064; I -0.524 ± 0.038; G -0.851 ± 0.049; L -0.775 ± 0.044; D -0.783 ± 0.085; C -0.716 ± 0.057; H -0.878 ± 0.052; F -0.861 ± 0.051
K2: S -0.003 ± 0.025; G -0.059 ± 0.041; R -0.325 ± 0.052; M -0.121 ± 0.11; W -0.291 ± 0.079; V -0.133 ± 0.034; E -0.29 ± 0.14; D -0.053 ± 0.033; I -0.09 ± 0.027; F -0.025 ± 0.018; A -0.239 ± 0.043; P -0.167 ± 0.073; Y -0.012 ± 0.033; C -0.084 ± 0.029; N -0.049 ± 0.034; T 0.015 ± 0.03; L -0.041 ± 0.038; H 0.047 ± 0.047
Q7: S -0.45 ± 0.033; I -0.748 ± 0.075; A -0.211 ± 0.031; L -0.743 ± 0.033; P -0.666 ± 0.057; Y -0.777 ± 0.068; C -0.574 ± 0.042; N -0.331 ± 0.049; D -0.07 ± 0.048; W -0.803 ± 0.051; M -0.12 ± 0.034; K -0.227 ± 0.032; T -0.488 ± 0.035; H -0.301 ± 0.045; G -0.457 ± 0.029; V -0.631 ± 0.032; E -0.006 ± 0.033; F -0.713 ± 0.064
S4: Q -0.676 ± 0.056; K -0.141 ± 0.043; I -0.567 ± 0.088; W -0.958 ± 0.075; H -0.385 ± 0.067; G -0.128 ± 0.025; N 0.001 ± 0.042; A -0.835 ± 0.044; F -0.656 ± 0.049; T -0.053 ± 0.047; P -0.393 ± 0.057; M -0.273 ± 0.041; C -0.183 ± 0.047; Y -0.491 ± 0.068; D -0.027 ± 0.031; V -0.496 ± 0.025
W3: R -0.498 ± 0.04; E -0.725 ± 0.15; G -0.597 ± 0.04; L -0.236 ± 0.048; T -1.05 ± 0.26; Y -0.6 ± 0.084; K -0.409 ± 0.064; A -0.653 ± 0.085; C -0.713 ± 0.12; N -0.545 ± 0.083; F -0.563 ± 0.067; P -0.764 ± 0.16; H -0.772 ± 0.13; S -0.504 ± 0.072; D -0.393 ± 0.061; I -0.053 ± 0.28
S6: P -0.328 ± 0.038; A 0.036 ± 0.023; W -0.291 ± 0.04; Q -0.003 ± 0.032; T 0.015 ± 0.033; V -0.076 ± 0.025; M -0.043 ± 0.031; Y -0.166 ± 0.034; I -0.17 ± 0.04; G -0.052 ± 0.027; C -0.195 ± 0.037; E -0.033 ± 0.035; R -0.043 ± 0.024; D 0.026 ± 0.044; N 0.016 ± 0.04; F -0.287 ± 0.038; H -0.04 ± 0.044
S1: P -0.653 ± 0.068; F -0.13 ± 0.058; L -0.154 ± 0.036; W -0.22 ± 0.045; N 0.063 ± 0.053; K 0.015 ± 0.039; T -0.198 ± 0.04; C -0.07 ± 0.048; E -0.283 ± 0.31; V -0.015 ± 0.056; D -0.028 ± 0.059; G -0.134 ± 0.052; I 0.038 ± 0.057; A -0.2 ± 0.046
P5: E -0.336 ± 0.042; M -0.377 ± 0.044; G -0.37 ± 0.029; I -0.233 ± 0.062; S -0.007 ± 0.025; N 0.005 ± 0.041; V -0.047 ± 0.025; D -0.275 ± 0.049; F -0.161 ± 0.047; T 0.043 ± 0.03; W -0.095 ± 0.044; K -0.514 ± 0.048; Q -0.315 ± 0.058; C 0.026 ± 0.041; A -0.055 ± 0.04; Y 0 ± 0.051

Variants of: B2
Assay: as above
Settings: Homo sapiens

Abundance fitness of substitutions, site by site:
E66: L -0.229 ± 0.05; Y -0.09 ± 0.068; W -0.313 ± 0.072; P -0.919 ± 0.44; N -0.227 ± 0.11; D -0.073 ± 0.045; Q -0.432 ± 0.18; A 0.096 ± 0.049; S -0.06 ± 0.039; K -0.106 ± 0.059; I -0.276 ± 0.13; C -0.385 ± 0.098; H -0.45 ± 0.3; V -0.142 ± 0.099; G -0.316 ± 0.075; M -0.215 ± 0.12; T -0.169 ± 0.073
A56: W -0.628 ± 0.086; S -0.278 ± 0.03; G -0.523 ± 0.049; H -0.123 ± 0.081; Q -0.095 ± 0.12; Y -0.421 ± 0.092; P -0.564 ± 0.16; F -0.623 ± 0.16; K -0.041 ± 0.13; C -0.384 ± 0.066; N -0.654 ± 0.19; V -0.319 ± 0.052; E -0.134 ± 0.049; M -0.416 ± 0.11; I -0.375 ± 0.11; D -0.552 ± 0.11; T -0.566 ± 0.11
I65: R -0.543 ± 0.14; G -1.05 ± 0.23; M -0.477 ± 0.13; E -0.994 ± 0.41; W -0.817 ± 0.16; C 0.036 ± 0.24; Q -0.852 ± 0.22; P -0.689 ± 0.26; L -0.069 ± 0.12; V -0.232 ± 0.11; T -0.141 ± 0.11
L51: V 0.042 ± 0.11; A 0.041 ± 0.088; S 0.044 ± 0.065; E 0.185 ± 0.089; D 0.125 ± 0.18; T -0.174 ± 0.12; H 0.002 ± 0.083
T52: R -0.21 ± 0.057; S -0.14 ± 0.17; F -0.412 ± 0.26; I -0.417 ± 0.4; K 0.189 ± 0.071; V -0.005 ± 0.095; Q -0.215 ± 0.1; C -0.31 ± 0.24; G -0.634 ± 0.14; L -0.163 ± 0.14; D -0.168 ± 0.31; H -0.104 ± 0.22
I57: V -0.177 ± 0.056; R -0.912 ± 0.11; N -0.542 ± 0.13; A -0.781 ± 0.13; H -1.03 ± 0.2; G -0.781 ± 0.1; E -0.749 ± 0.21; W -0.615 ± 0.2; K -0.931 ± 0.14; P -1.04 ± 0.28; L -0.76 ± 0.068; F -0.957 ± 0.15; T -0.855 ± 0.14; S -0.802 ± 0.096; Y -0.713 ± 0.19; M -0.417 ± 0.068; Q -0.779 ± 0.18
S67: G -0.012 ± 0.039; F -0.06 ± 0.066; R 0.039 ± 0.035; W -0.234 ± 0.083; V -0.098 ± 0.058; H -0.089 ± 0.057; T -0.101 ± 0.071; Y -0.179 ± 0.12; M -0.103 ± 0.13; I -0.078 ± 0.28; C 0.003 ± 0.052; P -0.055 ± 0.045; A 0.046 ± 0.072; D -0.055 ± 0.12; E -0.011 ± 0.074; K -0.2 ± 0.14; N 0.082 ± 0.063
Y68: G -0.661 ± 0.13; P -0.473 ± 0.13; S -0.427 ± 0.069; D -0.521 ± 0.12; N -0.384 ± 0.22; H -0.093 ± 0.092; I -0.541 ± 0.14; V -0.373 ± 0.11; A -0.127 ± 0.051; W 0.165 ± 0.073; K -0.47 ± 0.17; T -0.444 ± 0.15; C -0.643 ± 0.21; Q -0.185 ± 0.086; F -0.183 ± 0.18; L -0.536 ± 0.15; M -0.641 ± 0.29
Q63: F -0.232 ± 0.1; C -0.129 ± 0.066; L -0.276 ± 0.045; K -0.067 ± 0.073; N -0.038 ± 0.075; W -0.467 ± 0.078; D -0.019 ± 0.082; T -0.043 ± 0.055; V -0.293 ± 0.043; M -0.257 ± 0.084; R -0.115 ± 0.049; P -0.758 ± 0.2; S 0.011 ± 0.052; E -0.163 ± 0.11; Y 0.105 ± 0.2; A -0.057 ± 0.043
F53: L -0.813 ± 0.34
Q64: S -0.563 ± 0.052; T -0.658 ± 0.086; M -0.904 ± 0.18; R -0.709 ± 0.061; Y -0.795 ± 0.45; D -1.22 ± 0.4; P -0.878 ± 0.12; C -0.863 ± 0.12; A -0.354 ± 0.083; E -0.338 ± 0.068; H -0.741 ± 0.12; F -0.584 ± 0.082; L -0.52 ± 0.056; K -0.97 ± 0.25; W -0.618 ± 0.097; I -0.898 ± 0.11; V -0.941 ± 0.1
P55: T 0.479 ± 0.38
I61: A -0.763 ± 0.1; C -0.956 ± 0.27; W -0.989 ± 0.25; T -0.594 ± 0.16; R -0.878 ± 0.12; D -0.827 ± 0.29; V -0.536 ± 0.1; L -0.725 ± 0.26; M -0.461 ± 0.089; G -0.854 ± 0.15; S -1.06 ± 0.17; K -0.75 ± 0.17
R62: L -0.553 ± 0.075; T -0.3 ± 0.053; F -0.69 ± 0.37; A -0.66 ± 0.4; W -0.75 ± 0.18; M -0.619 ± 0.11; N -0.256 ± 0.083; I -0.824 ± 0.21; K -0.043 ± 0.047; Y -0.119 ± 0.45; C -0.629 ± 0.15; S -0.386 ± 0.054; P -0.718 ± 0.2; H -0.239 ± 0.14; Q -0.192 ± 0.083
V54: P -0.593 ± 0.23; F -0.739 ± 0.32; M -0.335 ± 0.28; A -0.119 ± 0.44; R -0.22 ± 0.16; G 0.144 ± 0.14; S -0.324 ± 0.14; L -0.684 ± 0.21; I -0.241 ± 0.077
A60: P -0.974 ± 0.17; E 0.085 ± 0.089; F -0.725 ± 0.17; T -0.081 ± 0.043; V -0.286 ± 0.047; K -0.214 ± 0.068; G -0.528 ± 0.078; S 0.076 ± 0.03; W -0.71 ± 0.22; Q 0.068 ± 0.049; C -0.068 ± 0.082; L -0.72 ± 0.082; Y -0.637 ± 0.11; R -0.285 ± 0.05; H -0.311 ± 0.066; N -0.28 ± 0.092
A58: S -0.072 ± 0.17
P50: Q -0.508 ± 0.15; N -0.567 ± 0.1; W -0.845 ± 0.14; V -0.772 ± 0.085; R 0.021 ± 0.045; T -0.364 ± 0.093; Y -0.714 ± 0.15; S -0.389 ± 0.046
